Experimental data from patent publication US20230095569A1 (ANTENGENE BIOLOGICS, published 2023).

Columns and labels:
[1] = molecular target: T1, human Claudin18.2 (CLDN18.2) (human, UniProt P56856 1-261); test: FACS on CHOK1-18.2 cells;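 also: antibody binding to the cells detected with a fluorescently labelled secondary antibody and read out as median fluorescence intensity by flow cytometry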
T1 construct: the cell line is named under assay; also called human Claudine18.2; hClaudin18.2
Description: (§1) The specificity and cross-reactivity of these subclones were confirmed with FACs analysis. […] Fluorescent dye-conjugated secondary antibody was used to detect the binding of the primary antibody with the cells. Median fluorescence intensity (MFI) was measured by FACs analysis.

[2] = molecular target: T2, human Claudin18.1 (CLDN18.1) (human, UniProt P56856 1-261); test: FACS on CHOK1-18.1 cells;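 as to FACS MFI: test antibody binding to the cells detected by flow cytometry using a fluorescent dye-labelled secondary antibody, read out as median fluorescence intensity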;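 as to result: antibody binding to cells detected with a fluorescently labelled secondary antibody, read out as median fluorescence intensity (MFI) by flow cytometry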
T2 construct: whole, on cells; also called human Claudine18.1
Description: as §1

[3] = molecular target: T2, human Claudin18.1 (CLDN18.1); test: FACS on CHOK1-18.1 cells; remark: listed apart in the source;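 as to FACS MFI: test antibody binding to the cells detected by flow cytometry using a fluorescent dye-labelled secondary antibody, read out as median fluorescence intensity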;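 as to result: antibody binding to cells detected with a fluorescently labelled secondary antibody, read out as median fluorescence intensity (MFI) by flow cytometry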
Description: as §1

Binder | FACS MFI [1] | binding result [2] | FACS MFI [3]
Ab38 (antibody, V domains shown, mouse monoclonal (hybridoma)) VH: QIQLVQSGPELKKPGETVKISCKASGYTFTNYGMSWVKQAPGKGLKWMGWINTYSGVPTYADDFKGRFVFSLEASASTAYLQINNLKNEDAATYFCSRWSGPDPLEDHWGQGTTLTVSS VL: QIVLTQSPAIMSASPGEKVTMTCTASLSLNYIHWYRQRSGTSPKRWIYDTSKLASGVPSRFSGSGSGTSYSLTISSMEAEDAATYYCQQWSSNPWTFGGGTKLEIK | 15700 |  | 
Ab27 (antibody, V domains shown, mouse monoclonal (hybridoma)) VH: QVQLQQSGAELVRPGSSVKISCKASGYAFSNYWMNWVKQRPGQGLEWIGQIYPGNGDTNYNGKFKGKATLTADKSSTTAYIQLSSLTSEDSAVYFCTRIYYGNSFAYWGQGTLVTVS VL: DIVMTQSPSSLTVTAGERVTMSCKSSQSLLNSGNQKNYLTWYQQKPGQPPKLLIYWASTRESGVPDRFTGSGSGTDFTLTISRVQAQDLAVYYCQNDYYYPLTFGAGTKLELK | 7150 | no binding | 97
Ab28 (antibody, V domains shown, mouse monoclonal (hybridoma)) VH: QVQLKESGPGLVAPSQSLSITCTVSGFSLTSHGVHWVRQPPGKGLEWLGVIWAGGSINFNSALMSRLSISKDNSKNQVFLKMNSLQSDDTAMYYCARDYYYGIGLDYWGQGTTLTVS VL: DIVMTQSPSSLSVSAGEKVTMSCKSSQSLLNSGNQKNYLAWYQQKPGQPPKLLIYGASTRESGVPDRFTGSGSGTDFTLTISSVQAEDLAVYYCQNDYYYPFTFGSGTKLEIK | 8880 | no binding | 206
Ab33 (antibody, V domains shown, mouse monoclonal (hybridoma)) VH: DVNLVESGGGLVKPGGSLKLSCAASGFTFSSYTMSWVRQTPEKRLEWVATITYGRIYTYYLDSVKGRFTISRDNAKNTLYLQMSSLRSEDTAMYYCTRMITGNAMDSWGLGTSVTVSS VL: DIVMTQSPSSLTVTAGEKVTMSCKSSQSLLNSGNQKNYLTWYQQKPGQPPKLLIYWASTRESGVPDRFTGSGSGTDFTLTISGVQGEDLAVYYCQNDYSYPLTFGGGTKLELK | 8200 | no binding | 97
Ab32 (antibody, V domains shown, mouse monoclonal (hybridoma)) VH: QVQLKESGPGLVAPSQSLSITCTVSGFSLTSHGVHWVRQPPGKGLEWLGVIWAGGSINFNSALMSRLSISKDNSKNQVFLKMNSLQSDDTAMYYCARDYYYGIGLDYWGQGTTLTVS VL: DIVMTQSPSSLSVSAGEKVTMSCKSSQSLLNSGNQKNYLAWYQQKPGQPPKLLIYGASTRESGVPDRFTGSGSGTDFTLTISSVQAEDLAVYYCQNDYYYPFTFGSGTKLEIK | 8730 | no binding | 172
Ab21 (antibody, V domains shown, mouse monoclonal (hybridoma)) VH: EVMLVESGGGLVKPGGSLKLSCAASGFTFSSYTMSWVRQTPEKRLEWVATIIGGYGNTYYVDSVKGRFTISRDSAKNTLYLQMISLRSEDTALYYCTRLGQTQRNAMDYWGQGTSVTVSS VL: DILMTQSPSSLSVSAGEKVTMSCKSSQSLLNSGNQKNYLAWYQQKPGQPPKLLIYGASTRESGVPDRFTGSGSGTDFTLTISSVQAEDLAVYYCQNDYYYPFTFGAGTKLEL | 10100 | no binding | 79.4
Ab26 (antibody, V domains shown, mouse monoclonal (hybridoma)) VH: EVMLVESGGGLVKPGGSLKLSCTASGFTFRSYTMSWVRQTPEKRLEWVATITGGGGNTYFLDSVKGRFTFSRDNAKNALYLQMNSLRSEDTALYYCARLGQTQRNAMDYWGQGTSVTVSS VL: DIVMTQSPSSLSVSAGEKVTMSCKSSQSLLNSGNQMNYLAWYQQKPGQPPKLLIYGASTRESGVPDRFTGSGSGTDFTLTISSVQAEDLAIYYCQNDHTYPLTFGAGTKLEL | 9730 | no binding | 80.8
Ab01 (antibody, V domains shown, mouse monoclonal (hybridoma)) VH: DVQLQESGPGLVKPSQSLSLTCSVTGYSITSGYYWNWIRQFPGNKLEWMGYITYDGSNNYNPSLKNRISITRDTSKNQFFLKLNSVTTEDAATYFCARDPNYYGTTLPAWFVYWGQGTLVTVSA VL: DIVVTQSHKFMSTSVGDRVSITCKASQDVGTAVAWYQQKPGQSPKLLIYWASTRHTGVPDRFTGSGSGTDFTLTISNVQSEDLTDYFCQQYSSYVTFGAGTKLELK | 12300 |  | 7250
Ab04 (antibody, V domains shown, mouse monoclonal (hybridoma)) VH: EVQLQQSGPELVKPGASVKMSCMASGYTFTDYNIHWVKRSHGSRLEWIGYISPISGGAGYNQKFMDKATLTVDKSSNTAYMELRSLTSEDSAVYYCTRGDYWGQGTTLTVSS VL: DIVMTQSPSSLAVTVGEKVTMSCKSSQSLLNSGNQKNYLTWYQQKPGQPPKLLIYWASTRKSGVPDRFTGSGSGTDFTLTISSVQAEDLGIYYCLNDYGFPLTFGAGSKLELK | 17600 |  | 6920
Ab36 (antibody, V domains shown, mouse monoclonal (hybridoma)) VH: EVKLEESGGGLVQPGGSMKLSCVASGFTFSNYWMNWVRQSPEKGLEWVAQIRLKSDNYATHYAESVKGMFTISRDDSKSSVYLQMNNLRAEDTGIYYCTAGGDYWGQGTTLTVSS VL: DIVMTQSQKFMSTTVGDRVSITCKASQNVGTAVAWYHQKPGQSPKLLIYSASNRYTGVPDRFIGSGSGTDFTLTISNVQSEDLGNYFCQQYINYLLTFGSGTKLEIK | 18000 |  | 
Ab37 (antibody, V domains shown, mouse monoclonal (hybridoma)) VH: EVKLEESGGGLVQPGGSMKLSCVASGFTFSNYWMNWVRQYPEQGLEWVAQIRLNSDNYATHYAESVKGRFTISRDDSRSTVYLQMNNLRAEDTGIYYCTGGGEYWGQGTTLTVSS VL: DIVMTQSQKFMSTTIGDRVSITCKASQNVDTAVAWYQQKPGQSPKLLIYSASTRYTGVPDRFTGSGSGTDFTLTISNMQSEDLADYFCQQYISYQLTFGAGTKLELK | 15200 |  | 4590

More lines, now with the values ahead:

FACS MFI [1] | binding result [2] | FACS MFI [3] | Binder
9020 | no binding | 82.3 | Ab22 (antibody, V domains shown, mouse monoclonal (hybridoma)) VH: EVMLVESGGGLVKPGGSLKLSCAASGFTFSSYTMSWVRQTPEKRLEWVATIIGGYGNTYYADSVKGRFTISRDSAKNTLYLQMISLRSEDTALYYCTRLGQTQRNAMDYWGQGTSVTVSS VL: DILMTQSPSSLSVSAGEKVTMSCKSSQSLLNSGNQKNYLAWYQQKPGQPPKLLIYGASTRESGVPDTFTGSGSGTDFTLTISSVQAEDLAVYYCQNDYYYPFTFGAGTKLEL
8600 | no binding | 82.3 | Ab23 (antibody, V domains shown, mouse monoclonal (hybridoma)) VH: EVMLVESGGGLVKPGGSLKLSCVASGFTFSSYTMSWVRQTPEKRLEWVATLSVVGGNTYYVDSVKGRFTISRDKAKNTLYLQMSSLRSEDTALYYCARLGQTQRNAMDYWGQGTSVTVSS VL: DIVMTQSPSSLSVSAGEKVTMSCKSSQSLLNSGNQKNYLAWYQQKPGQPPKLLIYGASTRESGVPDRFTGSGSGTDFTLTISSVQAEDLAVYYCQNDYSYPLTFGAGTKLEL
7580 | no binding | 82.3 | Ab20 (antibody, V domains shown, mouse monoclonal (hybridoma)) VH: EVMLVESGGGLVKPGGSLKLSCVASGFTFSSYTMSWVRQTPEKRLEWVATIIGGYGNTYYSDSVKGRITISRDSAKNTLYLQMISLRSEDTALYYCTRLGQTQRNAMDYWGQGTSVTVSS VL: DILMTQSPSSLSVSAGEKVTMNCKSSQSLLNSGNQKNYLAWYQQKPGQPPKLLIYGASTRESGVPDRFTGSGSGTDFTLTISSVQAEDLAVYYCQNDYYYPFTFGAGTKLEL
7560 | no binding | 98.5 | Ab30 (antibody, V domains shown, mouse monoclonal (hybridoma)) VH: QVQLKESGPGLVAPSQSLSITCTVSGFSLTKFGVNWVRQPPGKGLEWLGAIWGDGSTNYHSALISRLSINKDNSKSQVFLKLSSLQNVDTATYYCAKSGYGNAMDYWGHGTSVTVSS VL: DIVMTQSPSSLTVTTGEKVTLNCKSSQSLLNSGNLKNYLTWYQQRPGQPPKLLIYWASTRESGVPYRFTGSGSGTDFTLTISNVQAEDLAIYYCQNDYFFPFTFGSGTKLEIK
5520 | no binding | 97 | Ab31 (antibody, V domains shown, mouse monoclonal (hybridoma)) VH: QIQLAQSGPELKKPGETVKISCKASGYSFTNYGMNWVKQAPGKGLKWMGWINTYSGETKYADDFKGRFDFSLETSARTAYLQIKNLKIEDTATYFCARRDAMDYWGQGTSVTVSS VL: DIVMTQAAPSVPVTPGESVSISCRSSKSLLNSNGNTYLYWFLQRPGQSPQLLIYRMSNLASGVPDRFSGSGSGTAFTLRISRVEAEDVGVYYCMQHLEFPFTFGSGTKLEIK
19100 | no binding | 97 | Ab29 (antibody, V domains shown, mouse monoclonal (hybridoma)) VH: EVLLQQSGPELVKPGASVKIPCKASGYTLTDHSMDWVKQSHGKSLEWIGNILPNNGGNIYNQKFRGKATLTVDKSSSTAYMELRSLTSEDTAVYNCARGHYGNSFAYWGQGTLVIVS VL: DIVMTQSPSSLTVRAGEKVTIYCKSSQSLFNSGNQKNYLTWYQQKPGQPPKLLIYWASTRESGVPHRFTGSGSGTDFTLTISSMQADDLATYYCQNGYFFPYTFGGGTKLEIK
9070 | no binding | 91.1 | Ab34 (antibody, V domains shown, mouse monoclonal (hybridoma)) VH: EVLLQQSGPELVKPGASVKIPCKASGYTFSDYNMDWVKQSHGKSLEWIGHINPNNDNTIYNQKFKGKATLTVDKSSNTAYMDLRSLSSEDTAVYYCARGAYYGNSMDYWGQGTSVTVSS VL: DIVMTQSPSSLTVTAGERVTMSCKSSQSLLNGGNQRNYLTWYQQKPGQSPKLLIYWASTWESGVPDRFTGSGSGTDFTLTISSVQAEDLAVYYCQNAYFYPYTFGGGTKLEIK
1960 | no binding | 95.6 | Ab03 (antibody, V domains shown, mouse monoclonal (hybridoma)) VH: EVQLQQSGPELVKPGASVKIACKASGYTFTDYNMDWVKQSHGKSLEWIGNINSYYGGTIYNQKFKGKATLTVDKSSSTAYMVLRSLTSEDNAVYYCARPHLGNALDYWGQGTSITVSS VL: DIVVTQSPSSLTVTPGEKVTMSCKSSQSLFNSGNQKNYLSWYQQNPGQPPKLLIYWASTRQSGVPDRFTGSGSGTDFTLTISSVQAEDLAGYYCQNDYIFPLTFGAGTKLELK
